T1: Mcl-1, Q07820
T1 chain: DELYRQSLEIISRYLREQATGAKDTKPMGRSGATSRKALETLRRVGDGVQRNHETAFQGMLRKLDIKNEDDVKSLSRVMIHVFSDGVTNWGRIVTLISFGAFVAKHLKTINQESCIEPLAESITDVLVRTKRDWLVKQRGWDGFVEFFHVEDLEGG

T2: Bfl-1, Q16548
T2 chain: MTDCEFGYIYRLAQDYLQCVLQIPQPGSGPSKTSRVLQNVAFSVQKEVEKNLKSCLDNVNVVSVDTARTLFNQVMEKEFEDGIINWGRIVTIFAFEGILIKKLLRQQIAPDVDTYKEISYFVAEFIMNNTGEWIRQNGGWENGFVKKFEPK


Assays:
Assay in all cases: peptide SPOT array, c-Myc-tagged receptor at 1 uM or 100 nM, anti-c-Myc-Cy3
Mcl-1, Q07820 = target: T1, Mcl-1, Q07820
Bfl-1, Q16548 = target: T2, Bfl-1, Q16548
Bcl-xL, Q07817 = target: Bcl-xL, Q07817
Chain of Bcl-xL, Q07817 (Q07817 1-209): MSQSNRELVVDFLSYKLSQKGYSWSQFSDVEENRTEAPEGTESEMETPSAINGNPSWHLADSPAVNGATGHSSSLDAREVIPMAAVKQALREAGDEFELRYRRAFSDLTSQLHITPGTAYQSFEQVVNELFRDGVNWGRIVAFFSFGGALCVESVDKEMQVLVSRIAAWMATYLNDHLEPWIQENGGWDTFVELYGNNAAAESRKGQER

Row | SPOT signal as a fraction of Bim BH3's signal on the same receptor and array (Mcl-1, Q07820) | SPOT signal as a fraction of Bim BH3's signal on the same receptor and array (Bfl-1, Q16548) | SPOT signal as a fraction of Bim BH3's signal on the same receptor and array (Bcl-xL, Q07817) | Binder
1 | 0.29 | 0.21 | 0.31 | TVATRRLSGFLRTLLDRLEGTKELLS
2 | 1.6 | 1.26 | 2.82 | GTAVAYRGAHLRGRGRAVYNTFRAAP [XXXX]
3 | 0.09 | 0.08 | 0.08 | QRKHEGFERDDAALGDKVNSLGETAE [SPTAN1]
4 | 0.57 | 0.57 | 0.96 | LALLAQPSHLMRQVARSVFGHICSHL [MYBBP1A]
5 | 0.05 | 0.05 | 0.1 | MRPEIWIAQELRRILDEFNAYYARRV [BCL2L11]
6 | 0.26 | 0.38 | 0.38 | LCQLSCVSKLMRDVLGSLLQSRGMVI [FBXO30]
7 | 0.07 | 0.06 | 0.08 | SHFVACMTAILNQMLDQHYSFYIETF [DOCK2]
8 | 0.06 | 0.03 | 0.07 | LSIIYTLVEIDQNIGDTNLADFTAGL [SLC26A4]
9 | 0.68 | 0.44 | 1.16 | RLRQLGVAKKDGVLSDNFKGKRIVLV [PPAT]
10 | 0.04 | 0.03 | 0.06 | ADVHGIWSRLDCDFGDEFEVLDTTGE [UBA6]
11 | 0.24 | 0.19 | 0.32 | YIVLGLRKTTDQKVGKEVAELVGRVG [NLRX1]
12 | 0.07 | 0.05 | 0.09 | RKDAELLCWDLRQSLYPLWSLGREVT
13 | 0.2 | 0.18 | 0.28 | QASREAGAAALRNVLQRLFENYQTQS [CCDC68]
14 | 0.04 | 0.04 | 0.06 | DSLLWKLAGLDRESGDVVLSGCSTLS [STK11IP]
15 | 0.09 | 0.09 | 0.12 | SMRRNAMGVGDVFEADLFTTRHISHW [DNAH10]
16 | 0.04 | 0.03 | 0.05 | HHSSQEMSSEYREYADSFGKCPGGRN [PCYT2]

Row | SPOT signal as a fraction of Bim BH3's signal on the same receptor and array (Mcl-1, Q07820) | SPOT signal as a fraction of Bim BH3's signal on the same receptor and array (Bfl-1, Q16548) | SPOT signal as a fraction of Bim BH3's signal on the same receptor and array (Bcl-xL, Q07817) | Binder
17 | 0.06 | 0.04 | 0.07 | FGEYSGISENIILVLDDFWIPETSFI [ROS1]
18 | 1.1 | 0.67 | 1.3 | RVCPYYLSRNDKQQADIIFMPYNYLL [RTEL1]
19 | 0.07 | 0.05 | 0.08 | AGYELLIQKFDSLYGDQIDMHRKFVV [ISOC1]
20 | 0.28 | 0.12 | 0.29 | TVATRRLSGFDRTLADRLEGTKELLS
21 | 0.07 | 0.07 | 0.1 | QAGPVSSGLADRKLGDRVQLLNLLVT [CCDC57]
22 | 0.69 | 0.52 | 0.94 | AEVMRQRGINMRYLGKVLELVLRSPA [KIAA0664]
23 | 0.04 | 0.03 | 0.05 | EAVTDGLKRADRSFGNALGNCILDKD [RAD52]
24 | 0.05 | 0.04 | 0.06 | VLELHPGAQRLHIGLDEVYYLGEGEA [HEXDC]
25 | 0.04 | 0.04 | 0.11 | NGGLLEFHKSLQEIGDKNDHWFDIDP [DZIP3]
26 | 1.62 | 0.61 | 0.85 | TRRSMVFARHDREVGDEFRSRHLNST [POFUT2]
27 | 0.28 | 0.33 | 0.71 | ACGDSVLARMLRELLDSLRRPQLRLW [SLC19A1]
28 | 0.28 | 0.29 | 0.25 | YFKLFRASGDDRTNGDNYLYEIQLSS [IGF2R]
29 | 0.22 | 0.12 | 0.33 | PKKKMTLSEIYQWICDNFPYYREAGS [FOXJ3]
30 | 0.19 | 0.25 | 0.23 | KGTAVAICRRLGIFGDTEDVAGKAYT [ATP2A3]
31 | 0.72 | 0.53 | 0.52 | AELRLFLAQRLRWLLDSCPASRATCV [NBEAL2]
32 | 0.06 | 0.05 | 0.07 | RKDAELLCWDLRQSGYPLWSLGREVT

Reference: publication PMC4072508, “Genome-Wide Prediction and Validation of Peptides That Bind Human Prosurvival Bcl-2 Proteins” (PLoS Computational Biology, 2014)
